Laboratory results as given in PMC5255556, “mTORC1 phosphorylates LARP6 to stimulate type I collagen expression” (Scientific Reports, 2017).

Tests used:
[1] = target: T1, wt HA-LARP6 (La ribonucleoprotein domain family, member 6), full length (UniProt Q9BRS8 1-491); assay: co-IP; HLFs transduced with HA-LARP6 adenovirus; lysate in 50 mM Tris-HCl pH 7.5, 150 mM NaCl, 0.5% NP-40, 1 mM DTT; IP with anti-HA antibody 3 h at 4 °C, protein A/G-agarose, blot with anti-STRAP; cells untreated, treated with rapamycin, or with raptor knockdown (shRNA); settings: partners not purified
T1 construct: LARP6 (La ribonucleoprotein domain family, member 6), full-length, re-cloned from pcDNA3 into pAd-CMV-Track; In cells the protein is a mixture of phosphorylated isoforms; The construct is described in earlier work of the authors; also called wt LARP6; FL HA-LARP6; source: HLFs (human lung fibroblasts), adenovirus-transduced, in lysate or in lysed microsomal fraction
T1 sequence (looked up): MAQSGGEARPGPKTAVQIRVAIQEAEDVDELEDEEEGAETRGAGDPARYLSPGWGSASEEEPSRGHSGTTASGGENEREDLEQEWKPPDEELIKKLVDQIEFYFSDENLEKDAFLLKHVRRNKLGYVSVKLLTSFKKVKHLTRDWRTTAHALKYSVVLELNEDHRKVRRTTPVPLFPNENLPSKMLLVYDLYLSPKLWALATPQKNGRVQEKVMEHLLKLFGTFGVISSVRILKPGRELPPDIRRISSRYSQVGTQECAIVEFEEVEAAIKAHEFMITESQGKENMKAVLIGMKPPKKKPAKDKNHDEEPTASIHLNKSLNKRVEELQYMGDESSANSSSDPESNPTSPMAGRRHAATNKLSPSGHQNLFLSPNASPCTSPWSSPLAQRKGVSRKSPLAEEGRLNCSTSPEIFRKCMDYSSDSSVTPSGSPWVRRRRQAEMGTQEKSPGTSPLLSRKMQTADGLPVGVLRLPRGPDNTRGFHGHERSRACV

[2] = target: T2, HA-LARP6 S348A/S409A mutant, full length (UniProt Q9BRS8 1-491, S348A | S409A); assay: as above; settings: partners not purified
T2 construct: LARP6 (La ribonucleoprotein domain family, member 6), full-length, with S348A and S409A; Made by QuickChange site-directed mutagenesis; expressed from adenovirus; source: HLFs (human lung fibroblasts), adenovirus-transduced, in lysate or in lysed microsomal fraction
T2 sequence (looked up): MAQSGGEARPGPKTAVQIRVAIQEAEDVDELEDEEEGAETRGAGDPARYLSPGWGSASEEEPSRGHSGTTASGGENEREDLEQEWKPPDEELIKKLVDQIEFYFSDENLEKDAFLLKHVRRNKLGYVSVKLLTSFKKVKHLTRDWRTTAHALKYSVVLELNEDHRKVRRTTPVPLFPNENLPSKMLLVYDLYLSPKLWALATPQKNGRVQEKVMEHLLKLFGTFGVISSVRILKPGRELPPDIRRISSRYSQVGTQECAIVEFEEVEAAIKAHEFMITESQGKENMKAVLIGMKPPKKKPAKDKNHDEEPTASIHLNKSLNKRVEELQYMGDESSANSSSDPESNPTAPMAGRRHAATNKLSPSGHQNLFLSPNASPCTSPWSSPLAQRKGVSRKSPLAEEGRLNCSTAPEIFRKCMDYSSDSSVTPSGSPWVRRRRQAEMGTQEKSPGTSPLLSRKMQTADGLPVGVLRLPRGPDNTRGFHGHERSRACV

B1: serine-threonine kinase receptor-associated protein (STRAP) (natural protein, human (endogenous in HLFs), UniProt Q9Y3F4 1-350, looked up)
chain: MAMRQTPLTCSGHTRPVVDLAFSGITPYGYFLISACKDGKPMLRQGDTGDWIGTFLGHKGAVWGATLNKDATKAATAAADFTAKVWDAVSGDELMTLAHKHIVKTVDFTQDSNYLLTGGQDKLLRIYDLNKPEAEPKEISGHTSGIKKALWCSEDKQILSADDKTVRLWDHATMTEVKSLNFNMSVSSMEYIPEGEILVITYGRSIAFHSAVSLDPIKSFEAPATINSASLHPEKEFLVAGGEDFKLYKYDYNSGEELESYKGHFGPIHCVRFSPDGELYASGSEDGTLRLWQTVVGKTYGLWKCVLPEEDSGELAKPKIGFPETTEEELEEIASENSDCIFPSAPDVKA
notes: STRAP, serine-threonine kinase receptor-associated protein, endogenous in human lung fibroblasts, detected with anti-STRAP antibody; source: endogenous, HLF lysate
B1 was tested, and the “fraction of STRAP pulled down after rapamycin relative to untreated cells” value [1] was ~0.33 fraction of untreated and the “STRAP pulled down relative to wt HA-LARP6” value [2] was ~50 % less than wt HA-LARP6.
